Laboratory results: paper PMC2824085, “Identification of Novel Contributions to High-affinity Glycoprotein–Receptor Interactions using Engineered Ligands” (Journal of Molecular Biology, 2010)

Assays:
[1] = biological target: T1, soybean agglutinin (soybean, UniProt P05046 33-285, a single, uniform Man9GlcNAc2 oligosaccharide on each subunit); experiment: SPR; BiaCore 3000, CM5 chip; SBA or its glycopeptide amine-coupled, monomeric CRD of DC-SIGN flowed over; steady state, simple saturation model with linear background; 10 mM Hepes, 150 mM NaCl, 5 mM CaCl2, 0.005% P20, pH 7.4, 25 °C; conditions: both partners purified
T1 construct: also called SBA; intact soybean agglutinin
T1 sequence (P05046 33-285): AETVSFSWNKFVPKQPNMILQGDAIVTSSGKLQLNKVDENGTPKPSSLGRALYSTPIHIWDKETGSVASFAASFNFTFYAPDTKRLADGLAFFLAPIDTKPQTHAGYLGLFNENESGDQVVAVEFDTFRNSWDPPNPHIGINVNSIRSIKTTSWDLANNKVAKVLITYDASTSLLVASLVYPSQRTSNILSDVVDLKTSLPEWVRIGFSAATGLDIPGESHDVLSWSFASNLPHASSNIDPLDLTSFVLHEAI

[2] = biological target: the molecule itself; experiment: cross-linking + SEC; chemical crosslinking and gel filtration of the extracellular domain of MGL expressed in bacteria

Binder	Kd [1]	stoichiometry N [2]
monomeric carbohydrate-recognition domain (CRD) from DC-SIGN (domain or fragment, UniProt Q9NNX6 250-404, looked up, DC-SIGN, carbohydrate-recognition domain; it calls the CRD monomeric; also called monomeric CRD; dendritic cell-specific intercellular adhesion molecule 3-grabbing nonintegrin CRD) ERLCHPCPWEWTFFQGNCYFMSNSQRNWHDSITACKEVGAQLVVIKSAEEQNFLQLQSSRSNRFTWMGLSDLNQEGTWQWVDGSPLLPSFKQYWNRGEPNNVGEEDCAEFSGNGWNDDKCNLAKFWICKKSAASCSRDEEQFLSPAPATPNPPPA	4 µM	–
trimeric extracellular domain (ECD) of rat macrophage galactose lectin (MGL) (domain or fragment, extra alanine residue appended at the N-terminus; rat macrophage galactose lectin, extracellular domain from residue 59 to the C-terminus; also called extracellular domain of MGL; source: expressed in bacteria, T7 promoter system) AQNSQLRRDLETLRTTLDNTTSNTKAELQALASRGDSLQTGINSLKVEVDDHGQELQAGRGLSQKVASLESTVEKKEQTLRTDLSEITDRVQQLGKDLKTLTCQLASLKNNGSAVACCPLHWMEHEGSCYWFSQSGKPWPEADKYCQLENSNLVVVNSLAEQNFLQTHMGSVVTWIGLTDQNGPWRWVDGTDYEKGFTHWAPKQPDNWYGHGLGGGEDCAHFTSDGRWNDDVCQRPYRWVCEMKLAKDS	–	3
